The data set can be described thus: label from the status in PepcDB records.

For “MALTDNTRGALFMALAMASFTANDALTKSVTPYINTGQIMFVRGVMTVVLIYIAARHFGALRPLKTLLRPIIILRCLCEVTAAVLYLTALGLIEFSNASAILQSLPLVVTLGAALFLREPVGWRRWVAIIVGFIGVLVIIRPGPEGFTPGALLVVASLAVTAARDLLTRKMYADVPSLAITVITAFVNMAVGGLLIVPFGGWQPMNFTIVSHLAGSAILVLVGYQAIILSMRTGEISFVAPFRYTGLLWGFMIGVFFFNEKIDSYTIIGAMIVIGSGLYTFYRESLRKRSQMAKRAAATPTAATTVRPASVTKATVTEEAGE”, the protein production entry was “failed”.

For “MALVLTFLGKGGVGRTTVAIAAAKKLAQAGQRVLVLGQDPSLAWQWGITLSETAQGVEANVDGLLLSSTHLLERGWEKLKEVEAQYLRSPALKNIYGEELGVLPGMDEVLVLNALREYELSGRYDVLIYDGPGNLSTLRMLGIPEIASWYWRRFQKVLADSEVVQTLSPFVQPVASAVLSVNWSPDQMLNHPDGPQNLLQQGKAAIADPNRFAAYLVTSTDSLAQKAAQSYWGGAQQVGVTVKGVIQTPLGNGSLDANLFDPLLIAALPSYNQGNWQPLMDALPNPQAMGSAPRPLEIDVNARQVKVFLPGFDKRQVKLTQSGPELTIEAGDQRRNIDLPGNLRGKGVTGAKFQGGYLIVSFLEHHHHHH”, the protein production result was “failed”.

“MAMAVSGAVLSGLGSSFLTGGKRGATALASGVGTGAQRVGRKTLIVAAAAAQPKKSWIPAVKGGGNFLDPEWLDGSLPGDFGFDPLGLGKDPAFLKWYREAELIHGRWAMAAVLGIFVGQAWSGVAWFEAGAQPDAIAPFSFGSLLGTQLLLMGWVESKRWVDFFNPDSQSVEWATPWSKTAENFANYTGDQGYPGGRFFDPLGLAGKNRDGVYEPDFEKLERLKLAEIKHSRLAMVAMLIFYFEAGQGKTPLGALGL”: the protein production result is given as “failed”. The same measure for “MAMSGTYVTDVPLKGSAEKHYKRWRSENHLVPEAIGHLIQGVTVHDGDWDSHGTIKIWNYTRDGKEEVLKERIEMDDENMAVTINGLDGHVMEVLKVYVTTLHFIPESKDGCVCKITMVWEKRTEDSPEPIEFMKFVEQMIAHMDDHILQNQE”: “failed”; for “MAMSHLFLSSSPQSSLALRLHSTTQFTLSYSKNNKDCSFQSANEAKVSKRSLLCRAIHMESGHSGEQPKKLNFDNLLRRTKHVWDNSPQPVKEFPWNRAFGNFIQLVLDLAISVVKFLFVPILAVSSISEMSYCAHERKLALVPFPLVIGMVVAGVLQETALKISPRLKEAEVPWHLIAMMMFFTLIKLPGPYYPYWGRLLVPHFANGVLLRALWSMFFWYKKTRNTSGNPLQNHSLETE”: “failed”.

As for “MAMYIRVKRMKTTYFIQCDPTETVLDVKQKLFALIEQPVNNQRLVLMSTEEVLEDSKSLADQKVENDAVVALTLKKD”, the protein production result is given as “not failed”.

Regarding “MANAENNSVSTRSSELYREISQMDDEIMKLVEQINQPIGRPDFGAIEEARKKLTDKRMKLEELSKRMKEVIKEMEETPKR”, the protein production entry is given as “failed”.

On to “MANEGGQDAGDEYFADLDYIEVAEQLKEGYESEVDHSDPDAEEDNGGPDAEDDDDFRPNYHYQRKIKRSSRSGSTQNSSTQSSELDSQERAVINFNPNADLDET”, for which the protein production result was “failed”.

For the sequence “MANETPKRRILVIRIDFLGDMLCTTAFLGALKRRWPDAELHVVANRYNASALDGNPDVHAVHTYVYSRQCERNDRPGRMRAFFDRLRLVRRLRRLRFDLVVVPNGGMHRSSIQLARQLGVKDCRWHDADSEFDDRKPEHVASRPMCHEALSGFRLVPELGRNDLDGLALSVHPDRALLDTWYRLLGARAKPRVGLFVSNKATERRWPADRWCDLGRRLAPFADVIVFRDPAVSAGAGADGDAWRDVNARHVAPSSVAELVAAASLLDAIVSADSAPVHLASALGVPVAALFEDRPEKYRRWHPLGVPHMILRAGATVDAIGVDAVERAVLHLLEKAGQADDATGGALPLPDVTLVVPAVGAIVS”, the protein production result is given as “failed”. The value for “MANIEYDPERQLFHLHNDTFSYVIQVIRGYLVKRYCGPALDHFSGTAKLEDFSHAFNIQNDAAPYSLTTLPLEYSTLMGGDYRTPAYAVRNGHGQLIGNLKFDHYQILAGNESFNGTLPTARTPHGQTLIITMHDETQTLAVRLKYTIVGDLPVLLKQVEYRNLTDTTLTITHAASLQLDFDDHAYDLITLTGAHLNEAKVTRQPLTPGKKSIGSNYGASGPQGVPATILAAPATNEFAGEALGVTLLWSGNFNYTAQVDQFDNSRLVMGLNPELFAWQLKPGKPFVTPEAAVAYTNDGLNDLSRIFHRFFADHVMPLPRKNLIEYNTWETTYFDVSEAKILAEIPKAEELGVELLVIDDGWFKNRPNDAGQLGDWVPDPAKFPHGLRPVADAIHARGLAFGLWVEPEMISENSELYATHPDWAMQYVGQKPLRSRNQLILDLSQRIVQDHLITVLTNLVRDNHIDYLKWDYNRHFSQPGSPVLPPDQQGEVGYRYTRGLYRVLKTLRDTFPKLLIENCSSGGGRLDGGMIAYTDQTWTSDFTDPVYRMKIMNGFSLFFPLKIFVSHFTASPNLQDARLTPLHTRALLSLVGITGIECPPSQLSPAEAAAVKASFAFYKANRKELQNGLLFRLQPSHVNQDEVCWLITNAAKTKALVLTSVGVTSPIPHYQHVLLHYLDPKLSYQIDNTKNATGLELNHAGVTLPLAHGDFSATLMELTAVTNLPQPTAAPTLEHHHHHH” was “failed”; that for “MANKFSAAVVYAVFSSFALNFFYQPGHVYASGATGAAQVVTELVARISGHNILPISASLILVNAPLFILAWRGIGKQFTVYTVITVVMSSVFIHFIPVTPLTHEPVINAVFGGAIMGFGVGNAMKSGISSGGTDIVSLYMRKKTGRSVGTLAFLVNGVIIFTAGVLFGWEYMLYSLIAIFVNSRVQDAIFTRQKRLQVMIVTKNPELLTKKLVNRFKHGVTILHDAEGGYTHTSQTVLMTVITMYEYQEFKDIIQKYDEHAFVSISENVRVLGKFAEVED” was “failed”; that for “MANKVEHRLSEQQMKALTDLPLVFLITHDQSKSWPITHAISWVYAKDETTIRFAIEADSLLVKTLADHPVFTLIFFADQSTYSLTCTDVAAWETTARLPLKVALYEGQIKEVRDILFYGAAVSDRPRVYKTYDEAAAMQLDQQIQDILKG” was “not failed”. The value for “MANLFSFLFLGTLGWGMSLYLMKILLVSLTPTEIVLYRMAIGAASLFILAKLFKLKTDNIRGLILDGIIVGTFNMTLPFYLTTYAVKTVSSSLASVINGLTPLCTLILGMVFFSSKQKLGVLNLLSIVLGFIGIIIINSDVSIYQGSAVEFIALLATTISYGVTANYFKYHARTKEPILVSAVSAFVSAITMLIFKCATESSINSWGIPQGMNQIIALLWLGIIGSGFCLYLYCSLIQNAGAVFASMITYLMTITGVIMGMIFLHETISHQVMIGCIFIFFSLILVNHAPLLEKILVSISRQISLKSARRYELNQ” was “failed”. The same measure for “MANLGMTGVADGNNSEQTYLGQINYQDQTITKASAKKLNREIDLQRASQLTLWAMPMVGMYQSYNSTIALFDLQEGDAPIIGLHEGYDGVYPFLTANVTTPYTISLVDLSETGPYVVNIPAGSIFGVANNAWQEPIKEIGSGNKETLLFVGPGQEYPKDFDGEVIQSDTNQILYFYRVLGVGAEAEKLKTAVTAYKLSDVANPPQVKFVIYKPKASDADVTIATQPRGMAYWEVVNQYIQNEPMADRDRFFYAWLKDLGIEKGKAFNPTPYQKEILLEGVNTGMAMAQSLAFNKTKKKFSSSLYGSDSGWEGVLAGMDPKIDLDTYSMINERTAYTYEAVTTSAGMIVENPGHGSAYIGSYYDADGNALMGGKNYTLHIEPNPPAANFWSITVYDIKNRLIIRNEIKRSDLSSRSESLVMNSDGSVDLYFGPEAPEGKEGNWIQSNDGESYFMYLRLYGPEQEYFDQTYPMNKIDKTKLEHHHHHH”: “failed”. On to “MANLWIHALTVFMGFFAIMNPIANVPIFLSLTEGDDKKTTAMVASRALLLAFLIVTIFSVAGKLIFDLFGITLPAFQITGGLLVFLIGFHMLQGDQSSVQHPSETGKKKSPEAALSVTVSPLAMPILAGPGTIATAMNFSTGENFMEMAVTIVVFGVLCLITYVLFVSGEKFVTYIGASALGVITRMMGLILAVIGAQMVIAGIHGAFGLGAG”, for which the protein production result is reported as “failed”.

The record behind these values is a protein production outcome set (Wang et al. 2014).
